Results taken from PMC6914340.

Key:
Assay in all cases: flow cytometry on cells; on-yeast binding titration: single yeast colonies each displaying an IL-6 variant; biotinylated gp130 from 1 μM, eight concentrations in a 1/3 dilution series; apparent KD
[1] = molecular target: IL-6 variant Mut1 displayed on yeast (human) (UniProt P05231)
[2] = molecular target: IL-6 variant Mut7 displayed on yeast (human) (UniProt P05231)
[3] = molecular target: IL-6 variant Mut3 displayed on yeast (human) (UniProt P05231)
IL-6 variant Mut3 displayed on yeast (human), sequence (P05231 30-212, change not shown): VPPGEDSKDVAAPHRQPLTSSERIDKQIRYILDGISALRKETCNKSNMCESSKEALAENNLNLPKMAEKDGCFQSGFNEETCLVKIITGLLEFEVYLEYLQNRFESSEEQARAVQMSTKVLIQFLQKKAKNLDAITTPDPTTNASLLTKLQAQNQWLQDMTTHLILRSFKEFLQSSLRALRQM

Measured: Kd

biotinylated gp130 ectodomain (SD1-SD3, amino acids 23–321), sequence (P40189 23-321): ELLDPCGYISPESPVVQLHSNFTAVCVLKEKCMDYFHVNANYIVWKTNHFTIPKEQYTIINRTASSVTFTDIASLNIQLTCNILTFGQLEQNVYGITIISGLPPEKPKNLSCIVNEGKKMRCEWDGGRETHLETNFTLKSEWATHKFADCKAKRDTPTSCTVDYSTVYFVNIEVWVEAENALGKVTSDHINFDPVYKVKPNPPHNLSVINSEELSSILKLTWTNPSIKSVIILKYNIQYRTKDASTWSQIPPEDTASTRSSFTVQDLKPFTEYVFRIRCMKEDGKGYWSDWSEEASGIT
IL-6 variant Mut7 displayed on yeast (human), sequence (P05231 30-212, change not shown): as the sequence (P05231 30-212, change not shown) above
IL-6 variant Mut1 displayed on yeast (human), sequence (P05231 30-212, change not shown): as above

biotinylated gp130 ectodomain (SD1-SD3, amino acids 23–321) (from UniProt P40189 23-321) (domain or fragment)
2 nM: all assays above
